Reference: patent US12428446B2, “Peptide compound or pharmaceutically acceptable salt thereof” (Eyebio Korea, priority 2019, dated 2025)
Primed or numbered codes have the meaning given here. Where no end group is shown, it is not given here. [ ]: non-standard residue; d: D form. Pro(4,4-Me2) = CC1(C)CN[C@H](C(=O)O)C1; Asu′ = aspartimide (aminosuccinimide); Hyp = O=C(O)[C@@H]1C[C@@H](O)CN1

Columns and labels:
[1] = Evaluation of dissolution stability (content change on storage in dissolved state); format: physicochemical; details: 1 mg/1 ml dissolved state, 40° C. and RH 75%
[2] = system: IL-1β secretion, Raw 264.7 cells; test: Anti-inflammatory efficacy: IL-1β ELISA in LPS-stimulated Raw 264.7 macrophages; format: cell-based, mouse; details: for IL-1β level increased by LPS: 1 h pretreatment, LPS 1 μg/ml 24 h; for anti-inflammatory effect by regulating the secretion of IL-1β: summary, concentration not given
Protocol: (§1) An anti-inflammatory efficacy was evaluated for representative examples of the above examples. Specifically, in order to confirm whether Examples 10, 32, 41, 55, 59 and 91, which are representative examples of 5 amino acid residues, Examples 11 and 30, which are representative examples of 6 amino acid residues, Example 86, which is a representative example of 7 amino acid residues, and Examples 103 and 104, which are representative examples of 8 amino acid residues, have an anti-inflammatory effect, a change in the secretion amount of inflammatory cytokines was confirmed by enzyme-linked immunosorbent assay (ELISA) using Raw 264.7 cells, which are macrophage (monocyte) cell lines.
(§2) Specifically, the Examples were diluted in Raw264.7 cells (Korean Cell Line Bank, 40071) at a concentration of 10 nM, 100 nM, 1 μM, and 10 μM, respectively, and pretreated for 1 hour, and then LPS (Sigma, L6529) at a concentration of 1 μg/ml was added to induce an inflammatory response. After 24 hours of induction, the cell culture supernatant was collected and analyzed. Enzyme-linked immunosorbent assay was performed using Mouse IL-6 Quantikine ELISA Kit (R&D systems, M6000B), TNF-alpha Quantikine ELISA Kit (R&D systems, MTA00B), Mouse IL-1 beta/IL-1F2 Quantikine ELISA Kit (R&D systems, MLB00C) in accordance with the manufacturer's manual.

[3] = system: TNFα secretion, Raw 264.7 cells; test: Anti-inflammatory efficacy: TNFα ELISA in LPS-stimulated Raw 264.7 macrophages; format: cell-based, mouse; details: for anti-inflammatory activity by regulating the secretion of TNFα: summary, concentration not given; for TNFα level increased by LPS: 1 h pretreatment, LPS 1 μg/ml 24 h
Protocol: as §1, §2

## Hyp-Gly-Gln-D Asp-Gly ([Hyp]GQ[dD]G) [Example 59]
[1]
  Day 1 content (%): 98.78%
  Day 3 content (%): 98.76%
  Day 7 content (%): 98.75%
  Initial content (%): 98.78%
[2]; 100 nM peptide
  IL-1β level increased by LPS: significantly reduced
[2]
  anti-inflammatory effect by regulating the secretion of IL-1β: significant anti-inflammatory effect
[3]
  anti-inflammatory activity by regulating the secretion of TNFα: significant anti-inflammatory activity

## Hyp-Gly-Gln-Asu-Gly-Leu-Ala-Gly ([Hyp]GQ[Asu′]GLAG) [Example 103]
[1]
  Day 1 content (%): 97.20%
  Day 3 content (%): 96.90%
  Day 7 content (%): 94.88%
  Initial content (%): 97.09%
[2]; 1 μM peptide
  IL-1β level increased by LPS: significantly reduced
[2]
  anti-inflammatory effect by regulating the secretion of IL-1β: significant anti-inflammatory effect

## Gln-Asu-Gly-Leu-Ala-Gly-Pro-Lys (Q[Asu′]GLAGPK) [Example 104]
[1]
  Day 1 content (%): 96.52%
  Day 3 content (%): 93.78%
  Day 7 content (%): 93.01%
  Initial content (%): 94.22%
[3]; 10 nM peptide
  TNFα level increased by LPS: significantly reduced
[3]
  anti-inflammatory activity by regulating the secretion of TNFα: significant anti-inflammatory activity

## Hyp-Gly-Gln-Asp-Gly-Leu ([Hyp]GQDGL) [Example 11]
[1]
  Day 1 content (%): 91.37%
  Day 3 content (%): 81.21%
  Day 7 content (%): 64.19%
  Initial content (%): 98.96%
[3]; 10 μM peptide
  TNFα level increased by LPS: significantly reduced
[3]
  anti-inflammatory activity by regulating the secretion of TNFα: significant anti-inflammatory activity

## 4,4-dimethyl Pro-Gly-Gln-Asp-Gly ([Pro(4,4-Me2)]GQDG) [Example 55]
[1]
  Day 1 content (%): 94.34%
  Day 3 content (%): 90.29%
  Day 7 content (%): 81.00%
  Initial content (%): 97.82%
[2]; 100 nM peptide
  IL-1β level increased by LPS: significantly reduced
[2]
  anti-inflammatory effect by regulating the secretion of IL-1β: significant anti-inflammatory effect

## Hyp-Gly-Gln-Glu-Leu-Leu-Ala ([Hyp]GQELLA) [Example 86]
[1]
  Day 1 content (%): 97.40%
  Day 3 content (%): 97.77%
  Day 7 content (%): 97.55%
  Initial content (%): 98.16%
[2]; 10 nM peptide
  IL-1β level increased by LPS: significantly reduced
[2]; 1 μM peptide
  IL-1β level increased by LPS: significantly reduced
[2]; 10 μM peptide
  IL-1β level increased by LPS: significantly reduced
[2]
  anti-inflammatory effect by regulating the secretion of IL-1β: significant anti-inflammatory effect

## Hyp-Gly-Gln-Asp-Gly ([Hyp]GQDG) [Example 10]
[1]
  Day 3 content (%): 86.65%
  Day 7 content (%): 78.68%
  Initial content (%): 98.76%
[2]; 100 nM peptide
  IL-1β level increased by LPS: significantly reduced
[2]; 1 μM peptide
  IL-1β level increased by LPS: significantly reduced
[2]
  anti-inflammatory effect by regulating the secretion of IL-1β: significant anti-inflammatory effect
[3]; 10 nM peptide
  TNFα level increased by LPS: significantly reduced
[3]; 1 μM peptide
  TNFα level increased by LPS: significantly reduced
[3]
  anti-inflammatory activity by regulating the secretion of TNFα: significant anti-inflammatory activity

## LGLAGPK [Example 20]
[1]
  Day 1 content (%): 98.77%
  Day 3 content (%): 99.69%
  Day 7 content (%): 99.66%
  Initial content (%): 99.35%

## Hyp-Leu-Gln-Asp-Gly ([Hyp]LQDG) [Example 75]
[1]
  Day 1 content (%): 91.10%
  Day 3 content (%): 75.24%
  Day 7 content (%): 61.06%
  Initial content (%): 98.53%

## Hyp-Gly-Gln-Asp-Ala ([Hyp]GQDA) [Example 33]
[1]
  Day 1 content (%): 96.68%
  Day 3 content (%): 89.94%
  Day 7 content (%): 86.76%
  Initial content (%): 99.46%

## Hyp-Gly-Gln-Asp (isopropyl ester)-Gly-Leu-Ala (isopropyl ester) [Example 114]
[1]
  Day 1 content (%): 75.01%
  Day 3 content (%): 56.84%
  Day 7 content (%): 32.74%
  Initial content (%): 84.91%

## Hyp-Gly-Gln-Ala-Leu ([Hyp]GQAL) [Example 120]
[1]
  Day 1 content (%): 98.87%
  Day 3 content (%): 98.73%
  Day 7 content (%): 98.44%
  Initial content (%): 99.07%
